Laboratory results: PMC11932488, “Lytic coelomocyte death is tuned by cleavage but not phosphorylation of MLKL in echinoderms” (PLOS Pathogens, 2025)

Molecular target: the molecule itself
Assay: cross-linking; coelomocytes infected with 10^8 CFU/ml AJ01 for 3 h; Triton X-100 insoluble pellet cross-linked 30 min at room temperature (DSS by the legend); Western blot

B1: AjCASP-1 (cysteine-aspartic specific protease-1 of Apostichopus japonicus), endogenous (enzyme, UniProt A0A6G5QC75 1-299, looked up)
chain: MAVADIPSSDYVFRERKRPIRGDEPSAIHFNLRYDMQQQTRGFAHIFNNDIFQKMDDRKGTRKDRDNLKETFTNLGFKVRVHDDCTASEIRDILLEASKVDHSDFDCFLCVFLTHGDDGIIYGSDGEPESFKGNGSVHSTNRTWLRLNDDVFDIFRGNNCSTLIGKPKIFIIQACRGGTAEFSAMIGSAATDYEEPLETSVGVKVTIPTEADFLISYSSSEGYYSFRELYKGTWFIQDLTRVLNEFGRNGDFIRMLTVVNKLVSERAIQGSGKPELEGKKQMPCFLSKLTRQLHLTAQT
notes: AjCASP-1, caspase-1 of Apostichopus japonicus, MH807451; 34 kDa monomer, self-cleaved to p20 (25 kDa) after AJ01 infection; In infected cells both the uncleaved and the self-cleaved form are present; also called AjCaspase-1; source: endogenous, A. japonicus coelomocyte lysate (uninfected or AJ01-infected)
B1 was tested, and the “stoichiometry N” value was 2.
